Experiments:
[1] = test system: intact living potato pot plants; test: VHH binding to intact living plants; design: species or system potato (variety Desiree); details: in PBS; 1 hour; FIG. 2: 5 μg/ml
Method: Binding of VHH to intact living plants was investigated on potato pot plants (variety Desiree). Compound leaves of intact living plants were submersed in solutions of hexahistidine-tagged VHH in PBS, or PBS alone for control conditions, leaving the compound leaves attached to the plants. VHH were allowed to bind for 1 hour. Next, the compound leaves still attached to the plants were washed five times in PBS in Erlenmeyer flasks. Different leaves and petiole sections were sampled. Bound VHH were detected by incubation with monoclonal mouse anti-histidine antibodies directly conjugated with Alexa-488 fluorescent dye (Abd Serotec) in PBS for 1 hour. Unbound anti-histidine antibodies were removed by washing five times with PBS. Whole leaves, leaf discs, or petiole sections were analyzed for bound VHH with microscopy.

surface of grass leaves = test: VHH binding to non-fixed leaf discs, grass; details: 5 μg/ml, detection with anti-histidine Alexa-488
Method: (§1) VHH binding to non-fixed leaf discs of potato (variety Desiree), black nightshade, grass, wheat or azalea was investigated. For comparison, binding of CBM3a to non-fixed leaf discs of potato (variety Desiree) was analyzed in parallel. Leaf discs were prepared by punching a fresh potato leaf with a 5 mm belt hole puncher tool. Leaf discs were put immediately in wells of a 96-well plate containing 200 μl per well 5% MPBS or PBS, and incubated for 30 minutes. Leaf discs were transferred to solutions containing 5 μg/ml VHH antibody fragment, respectively, 5 μg/ml CBM3a in 2% MPBS or PBS and incubated for 60-90 minutes. Unbound VHH or CBM3a proteins were removed by washing three times with 2% MPBS or PBS. Bound VHH or CBM3a proteins were detected with incubation with monoclonal mouse anti-histidine antibodies directly conjugated with Alexa-488 fluorescent dye (Abd Serotec) in 1% MPBS for 1 hour. Unbound antibodies were removed by washing three times with PBS. Leaf discs were put on glass slides, covered with cover slips, and analyzed by microscopy or on a macrozoom microscope system (Nikon) or a SP5 confocal microscope system (Leica).

[2] = test system: leaf surface of potato leaves; test: VHH binding to non-fixed leaf discs, potato; design: species or system potato (variety Desiree); details: 5 μg/ml, detection with anti-histidine Alexa-488
Method: as §1

azalea leaf discs = test: Leaf disc binding assay with VHH-coupled microcapsules, azalea; details: Uvitex microcapsules
Method: A leaf disc binding assay was used to evaluate the interaction of VHH-coupled microcapsules with potato, grass and azalea leaves. ø 8 mm leaf discs were sampled from the leaves of potato pot plants (variety Desiree), from the leaves of greenhouse-grown Lollium perenne and from the leaves of azalea pot plants. Leaf discs were washed three times with PBS. Microcapsules containing lambda cyhalothrin or Uvitex were diluted to appropriate densities in 1% skimmed milk in PBS with 0.05%-TWEEN®-20. Microcapsules were added to the leaf discs and settling of microcapsules and binding of targeting agents allowed for 1 hour. Unbound microcapsules were removed by washing three to five times with PBS with 0.05%-TWEEN®-20.
Leaf discs with Uvitex microcapsules were analyzed for bound microcapsules on a macrozoom microscope system (Nikon). Microcapsules were counted using Volocity image analysis software (Perkin Elmer). A DAPI filter was used to visualize Uvitex microcapsules. Controls for Uvitex microcapsules included blank microcapsules to which no VHH were coupled and microcapsules to which unrelated VHH were coupled.

[3] = ELISA-like assay, microcapsules with monovalent or bivalent VHH, unrelated antigen; type: binding; design: unit not given beside the values; details: Uvitex microcapsules
Excerpt: Bivalent VHH constructs were produced in bacteria by cloning two VHH sequences in tandem into the pASF22 vector, creating a fusion of two VHH with a 9 glycine-serine linker (GGGGSGGGS (SEQ ID NO:50)) in between the two VHH. pASF22 is an in-house produced pMES derivative. The tags that were used were C-terminal c-Myc (EQKLISEEDLN (SEQ ID NO:51)) and hexahistidine (HHHHHH (SEQ ID NO:52)). A triple alanine linker (AAA) was placed in between the C-terminal end of the VHH and the c-Myc tag and a glycine-alanine-alanine (GAA) linker was used in between the C-terminal end of the c-Myc tag and the hexahistidine tag. The complete sequence C-terminal of the bivalent VHH that was used: AAA-EQKLISEEDLN-GAA-HHHHHH (SEQ ID NO:53). Fresh overnight cultures were produced by starting from colony streaks and inoculation of 2×TY media supplemented with 2% glucose and 100 μg/ml ampicillin. The overnight cultures were used to inoculate fresh cultures 1:100 in 2×TY media with 0.1% glucose and 100 μg/ml ampicillin. After growing at 37° C. in a shaking incubator for 3 hours, IPTG was added to a 1 mM final concentration and recombinant bivalent VHH were produced during an additional incubation for 4 hours. Cells were spun down and resuspended in 1/50th of the original culture volume of PBS and incubated with head-over-head rotation at 4° C. for 30 minutes. Spheroplasts were spun down by centrifugation at 3,000 g and 4° C. for 20 minutes. Supernatants were transferred to fresh tubes and centrifuged again at 3,000 g and 4° C. for 20 minutes. The supernatant was collected and sodium chloride concentration was adjusted to 500 mM and imidazole concentration to 20 mM. Hexahistidine-tagged bivalent VHH were purified from the extracts using HisTrap FF Crude 5 ml IMAC columns (GE Lifesciences) and HiLoad 16/60 Superdex 75 prep grade gel filtration column (GE Lifesciences) on an AKTAxpress system (GE Lifesciences) following standard procedures.
Next, it was investigated if binding of microcapsules to surfaces could be improved by using targeting agents comprising multivalent VHH. A series of parallel couplings was performed with equal amounts of monovalent VHH, bivalent VHH, and unrelated VHH. Success of coupling of VHH and multivalent VHH were analyzed as described in Example 4. An ELISA-like assay was performed using high bind half area microplates (Greiner Bio-One) coated with 5 μg/well potato lectin. Control wells included blank wells or wells coated with unrelated antigens. Plates were washed three times with PBS with 0.05%-TWEEN®-20 and blocked with 5% skimmed milk in PBS for 1 to 2 hours. VHH-coupled Uvitex-containing microcapsules were diluted to appropriate densities in 1% skimmed milk in PBS with 0.05%-TWEEN®-20. Five-fold serial dilution series were prepared and allowed to bind to the surface to compare binding of microcapsules coupled with monovalent or bivalent VHH. Microcapsules were added to the antigen-coated or control wells and allowed to bind for 1 hour. Unbound microcapsules were removed by washing five times with PBS with 0.05%-TWEEN®-20. The bottoms of ELISA plate wells were analyzed for bound microcapsules on a macrozoom microscope system (Nikon). Microcapsules were counted using Volocity image analysis software (Perkin Elmer). A DAPI filter was used to visualize Uvitex microcapsules. […] The surface area of microcapsules with coupled bivalent VHH was 15-fold above the surface area of blank microcapsules applied at this microcapsule density while the surface area of microcapsules with monovalent VHH was only six-fold above the surface area of blank microcapsules applied at this microcapsule density. This difference could be explained by an increase in binding strength due to additional avidity of the bivalent VHH compared to monovalent VHH, it could also be that the use of bivalent VHH increases flexibility and spacer length of the coupled targeting agents on microcapsules, or a combination of both.

Molecule	binding to intact living plant (leaves attached to potato pot plant submerged in VHH solution) [1]	binding to native grass leaf surface (fluorescence microscopy) (surface of grass leaves)	binding to native grass leaf surface (fluorescence microscopy) (surface of grass leaves; listed as 3E6)	binding to native potato leaf surface (fluorescence microscopy) [2]	binding to native potato leaf surface (fluorescence microscopy) ([2]; listed as 3E6)	specific binding of microcapsules to azalea leaf discs (azalea leaf discs)	Surface area of bound microcapsules ([3]; no coating (second series, with unrelated antigen rows), surface coverage 100%)	Surface area of bound microcapsules ([3]; unrelated antigen, surface coverage 4%)	Surface area of bound microcapsules ([3]; unrelated antigen, surface coverage 20%)	Surface area of bound microcapsules ([3]; unrelated antigen, surface coverage 100%)
VHH 3E6: VHH binding gum arabic, potato lectin and leaf surface; SEQ ID NO:7 by order of the list (protein, listed as Lama glama, 3E6) VHH: QVQLQESGGGLVQPGGTLSLSCAASGFNVRWYGMGWFRQAPGKEREGVACISALQETTAYADSVKGRFTLSRDNPKNTLSLQMNNLQPEDTGVYYCATTDCDDSSRMTYTSYLGQGTQVTVSS	binding leaf surface, stomata, glandular trichomes, and leaf hairs	binding to leaf surface and wounded plant tissue	bind specifically	binding leaf surface, stomata, glandular trichomes, and leaf hairs	clearly binding to trichomes, stomata and cuticle	–	–	–	–	–
Microcapsules containing uvitex OB VHH 3E6: polyurea microcapsules containing the fluorescent tracer Uvitex OB, coupled with (monovalent) VHH 3E6 (conjugate, left off: small tags and cut ends, polyurea microcapsules containing the fluorescent tracer Uvitex OB, coupled with (monovalent) VHH 3E6) VHH: QVQLQESGGGLVQPGGTLSLSCAASGFNVRWYGMGWFRQAPGKEREGVACISALQETTAYADSVKGRFTLSRDNPKNTLSLQMNNLQPEDTGVYYCATTDCDDSSRMTYTSYLGQGTQVTVSS	–	–	–	–	–	no specific binding	72.036	5.011	27.742	69.503
